# According to PMC10269722, “LexR Positively Regulates the LexABC Efflux Pump Involved in Self-Resistance to the Antimicrobial Di-N-Oxide Phenazine in Lysobacter antibioticus”:
# T1: LexR (Lysobacter antibioticus OH13, UniProt A0A0S2F3V0 1-384)
# T1 sequence: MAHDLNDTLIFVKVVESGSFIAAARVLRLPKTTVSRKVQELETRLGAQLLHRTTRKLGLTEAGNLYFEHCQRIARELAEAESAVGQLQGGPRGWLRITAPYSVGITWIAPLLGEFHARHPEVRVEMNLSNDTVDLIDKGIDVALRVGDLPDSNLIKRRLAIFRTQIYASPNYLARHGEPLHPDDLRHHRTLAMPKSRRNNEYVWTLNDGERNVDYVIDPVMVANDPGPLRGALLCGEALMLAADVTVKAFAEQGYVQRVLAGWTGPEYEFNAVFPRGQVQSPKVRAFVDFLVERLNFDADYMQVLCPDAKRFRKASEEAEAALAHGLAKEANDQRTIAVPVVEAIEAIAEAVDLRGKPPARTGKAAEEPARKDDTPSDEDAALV
# B1: probe 2 (50 bp, 8-bp site deleted) (dsDNA)
# DNA 1: ACTTGATTAGCCACTGATTCAGGGACCCGACATCGGGCCAATGCCCTCTC
# DNA 2: GAGAGGGCATTGGCCCGATGTCGGGTCCCTGAATCAGTGGCTAATCAAGT
# B2: lex probe (165 bp) (dsDNA)
# DNA 1: ATGGGAGAAACGCGAATCGGGCTTGTCGGGGGCTCAACATGGCGGGGGGCCTCGTGTCGATCTGCGGCAAAGAGTAGAGAGATGGACGGCACTTGATTAGCCACTGATTCAGGGAATAATTGTCCCGACATCGGGCCAATGCCCTCTCTGCCTCCTTGAATGCCC
# DNA 2: GGGCATTCAAGGAGGCAGAGAGGGCATTGGCCCGATGTCGGGACAATTATTCCCTGAATCAGTGGCTAATCAAGTGCCGTCCATCTCTCTACTCTTTGCCGCAGATCGACACGAGGCCCCCCGCCATGTTGAGCCCCCGACAAGCCCGATTCGCGTTTCTCCCAT
# B3: unlabeled lex probe (165 bp) (dsDNA)
# DNA 1: B2 DNA 1
# DNA 2: B2 DNA 2
# B4: probe 1 (58 bp) (dsDNA)
# DNA 1: ACTTGATTAGCCACTGATTCAGGGAATAATTGTCCCGACATCGGGCCAATGCCCTCTC
# DNA 2: GAGAGGGCATTGGCCCGATGTCGGGACAATTATTCCCTGAATCAGTGGCTAATCAAGT
# B5: probe 4 (probe 3 with putative LexR site) (dsDNA)
# DNA 1: GGCTCCGCGCCTGCCAGCATAATTGTTCGTTGTCTGGGGGCTAGGGCGAGACACCCGC
# DNA 2: GCGGGTGTCTCGCCCTAGCCCCCAGACAACGAACAATTATGCTGGCAGGCGCGGAGCC
# B6: control probe (158 bp) (dsDNA)
# DNA 1: ATGCGCCTCGCGATCAACACGGTCGCATCCCCTCTTTGCCAGCCACGGCTCCGCGCCTGCCAGCTTCTTTTTTCGTTGTCTGGGGGCTAGGGCGAGACACCCGCATACCGATGACTTCGTCGGCAGTGGCCCAAGACGGATTGCGTAGTGCGCCTACG
# DNA 2: CGTAGGCGCACTACGCAATCCGTCTTGGGCCACTGCCGACGAAGTCATCGGTATGCGGGTGTCTCGCCCTAGCCCCCAGACAACGAAAAAAGAAGCTGGCAGGCGCGGAGCCGTGGCTGGCAAAGAGGGGATGCGACCGTGTTGATCGCGAGGCGCAT
# Key:
# [1] = molecular target: T1, LexR; experiment: EMSA; EMSA (LightShift kit): 1x binding buffer, 50 ng/uL poly(dI-dC), 2.5% glycerol, 5 mM MgCl (so in the source), 0.05% NP-40, 5 fmol labeled probe in 20 uL, 30 min, room; details: protein: recombinant; tags: His6 (pET-28a, BamHI/EcoRI); chain copies: 2; label: 5' biotin; blunt
# [2] = molecular target: T1, LexR; experiment: EMSA; no myxin; EMSA (LightShift kit): 1x binding buffer, 50 ng/uL poly(dI-dC), 2.5% glycerol, 5 mM MgCl (so in the source), 0.05% NP-40, 5 fmol labeled probe in 20 uL, 30 min, room; details: protein: recombinant; tags: His6 (pET-28a, BamHI/EcoRI); chain copies: 2; label: 5' biotin; blunt
# [3] = molecular target: T1, LexR; experiment: competition; unlabeled competitor vs biotin-lex probe; EMSA (LightShift kit): 1x binding buffer, 50 ng/uL poly(dI-dC), 2.5% glycerol, 5 mM MgCl (so in the source), 0.05% NP-40, 5 fmol labeled probe in 20 uL, 30 min, room; details: protein: recombinant; tags: His6 (pET-28a, BamHI/EcoRI); chain copies: 2; label: none; blunt
binder,measurement,setting,value
B1,binding result,[1],no binding
B2,binding result,[2],binds
B3,binding result,[3],binds
B4,binding result,[1],binds
B5,binding result,[1],no binding
B6,binding result,[1],no binding
